Assay: soluble on expression in E. coli; label from the status in PepcDB or PDB records
In the case of “MFHCPLCQHAAHARTSRYITDTTKERYHQCQNVNCSATFITYESVQRYIVKPGEVHVVRPHPLPSGQQIMWM”, the “soluble on expression in E. coli” value is reported as “soluble”. In the case of “MGSDKIHHHHHHMIVKAKFVKGFIRDVHPYGCRREVLNQIDYCKKAIGFRGPKKVLIVGASSGFGLATRISVAFGGPEAHTIGVSYETGATDRRIGTAGWYNNIFFKEFAKKKGLVAKNFIEDAFSNETKDKVIKYIKDEFGKIDLFVYSLAAPRRKDYKTGNVYTSRIKTILGDFEGPTIDVERDEITLKKVSSASIEEIEETRKVMGGEDWQEWCEELLYEDCFSDKATTIAYSYIGSPRTYKIYREGTIGIAKKDLEDKAKLINEKLNRVIGGRAFVSVNKALVTKASAYIPTFPLYAAILYKVMKEKNIHENCIMQIERMFSEKIYSNEKIQFDDKGRLRMDDLELRKDVQDEVDRIWSNITPENFKELSDYKGYKKEFMNLNGFDLDGVDYSKDLDIELLRKLEP”, the “soluble on expression in E. coli” value is reported as “not soluble”. In the case of “MPSKQVGWWTMSEHTNDEVQPTALSGNDAVNRAAEQWKESAHRNIPGLGDLPIPDDTANLREGPNLHDGLLALLPLVGVWRGTGHADTAEEGQYAFGQQITFAHDGENYLTYESRIWKLDDEGNSTDLDYRESGFWRISLKDEIEVVLTHSTGVAEIFYGEPMNERAWQIESASTMVTAQGPATLGPGKRLYGLMPNNNLGWVDERMVDGEMRPRMSAELSRVIG”, the “soluble on expression in E. coli” value is reported as “not soluble”. For “MRERAYFIGAHAYSAPIIEPALYLVATPIGNLADITLRALQVLAGVDILACEDTRVTRVLLERYGIQKKTFLYHEYNAQKAGPKLLTALEENKAIALVSDAGTPLISDPGFRLVEEARKAGHKIVPIPGASALLAALVATGLPTDSFFFAGFLSARKAQRQKRLEQLKTIPATLVFYESPHRLVETLQDMVALFSADRPAAICRELTKKFETVDVSNLGNLSESYGKQAHIRGEIVVLVGQKLSSLNVMSDHEIDEMLLELARTYSAAKAASLASKKTGLKKQELFQRLNFLKDA”, the “soluble on expression in E. coli” value was “not soluble”. With “KSNYVRVIPNPKVPTDYPAITIEMNDTVSSEQTIEALKSIERVMQEVESQTIADHGQGMIRDVLSYNRSRTEGRVLVPLVDEEIRPFNTFELARRWREAMPVIPGMKSIKIREQSAGGGDRDEFGYLLFGSNINELNQAGRYLIERLQQEEGLFDISSSIDSGSKEVLLSLAPVAYDLGLDLTMIAQQVGGSFYGGEAQRLIRDGEEIKVMVRYPQLTREAFSSLRYAVITTPAGKKVMLGDVVNISEQPGVSTIRREGGYQTVYVYGSIDEELVEPQEIVKIIDDSILPDMKKLHPSVKTELGGDIEEQAAQRNEQ” the “soluble on expression in E. coli” value was “not soluble”. With “MTNLFVRSGISFVDRSEVLTHIGNEMLAKGVVHDTWPQALIAREAEFPTGIMLEQHAIAIPHCEAIHAKSSAIYLLRPTNKVHFQQADDDNDVAVSLVIALIVENPQQQLKLLRCLFGKLQQPDIVETLITLPETQLKEYFTKYVLDSDE” the “soluble on expression in E. coli” value was “soluble”. With “MIKFYQYKNCTTCKKAAKFLDEYGVSYEPIDIVQHTPTINEFKTIIANTGVEINKLFNTHGAKYRELDLKNKLQTLSDDEKLELLSSDGMLVKRPLAVMGDKITLGFKEDQYKETW” the “soluble on expression in E. coli” value was “soluble”. With “MVDLYQLFKTRTPIIGVVHLLPLPTSPRWGGSLKAVIDRAEQEATALASGGVNGIIVENFFDAPFTKNQVDPAVVSAMTVVVQRIQNLVTLPVGLNVLRNDGKSAMAIASCVRAQFIRVNVLTGVMATDQGLIEGEAHELLRYRRELGSDVQILADVLVKHARPLSSPNLTVAVKDTIERGLADAVILSGWATGSPPNQEDLELACDAANGTPVFIGSGASWENIATLLQAANGVIVSSSLKRHGRIEQPIDPIRVSQFVEAAHRSWNSKGESKSVSSITIHSLEHHHHHH” the “soluble on expression in E. coli” value was “not soluble”. With “MKQQAIDEQLRNAIEYTPEMFTQVPMLYINIEINNYPVKAFVDTGAQTTIMSTRLAKKTGLSRMIDKRFIGEARGVGTGKIIGRIHQAQVKIETQYIPCSFTVLDTDIDVLIGLDMLKRHLACVDLKENVLRIAEVETSFLSEAEIPK” the “soluble on expression in E. coli” value was “soluble”. With “MGSDKIHHHHHHMEKMLYTAASGAVRILEAQSIRANNLANAETAGFKADLERVNAVPLVAQGNSLNTRVMAQTESSGFSQQSGVINPTGRSLDLAIRDRGLFSVAVDGAEAYTRSGAIETNAEGQLTIDGRPVLGIDGPIALPEYKDVFVGEDGTVSVLPAEGGIIEEVGRLKLVNPDFALMQKGQDGLLYRRDGQAVPQDEGVLVDSGFLESSNVQAVSELIASMDLSRQFEIQVKLMKSAEKLAEAGNRLLGNV” the “soluble on expression in E. coli” value was “not soluble”. With “MPKTISVRVTTMDAELEFAIQPNTTGKQLFDQVVKTIGLREVWFFGLQYQDTKGFSTWLKLNKKVTAQDVRKESPLLFKFRAKFYPEDVSEELIQDITQRLFFLQVKEGILNDDIYCPPETAVLLASYAVQSKYGDFNKEVHKSGYLAGDKLLPQRVLEQHKLNKDQWEERIQVWHEEHRGMLREDAVLEYLKIAQDLEMYGVNYFSIKNKKGSELWLGVDALGLNIYEQNDRLTPKIGFPWSEIRNISFNDKKFVIKPIDKKAPDFVFYAPRLRINKRILALCMGNHELYMRRRKP” the “soluble on expression in E. coli” value was “soluble”. With “MKKHIKNLFLLAAICLTVACKEQLYTGLTEKEANQMQALLLSNDVNVSKEMDKSGNMTLSVEKEDFVRAITILNNNGFPKKKFADIEVIFPPSQLVASPSQENAKINYLKEQDIERLLSKIPGVIDCSVSLNVNNNESQPSSAAVLVISSPEVNLAPSVIQIKNLVKNSVDDLKLENISVVIKSSSGQDG” the “soluble on expression in E. coli” value was “not soluble”. In the case of “MSLDREKANKNLLKILEAINGNSLVLFKSFEDLDSFYKYLKREITKTNIKNKNIHVYEQGMDGKEAKELKERFEKIGGILLATGRFAEGVDIPGEALVGVVIDSLPFPVPTPLILREQKILEERFKIRGVRDAHWRAFLMTSFDRMARTLVQMIGRLIRTENDYGVVVIQDKRFADWVGRVMREKGEGHHHHHH”, the “soluble on expression in E. coli” value is reported as “soluble”. With “MGPDTTSERVSEDLMQAVTCLKRVMVGMKSNGTDYVQEQTPSNSTTVICTLVKITGALERCIESNKAMNDVLNGKMKCTTCGATSVGLLSDCHDSATSTTTTVSHRSSEEPPRRKPSAAGGDHDDEELECSSIESRSIRSVSSSVHTSAEDDETNQTMMVPTDVADVINAIVAGTNGSSNSNTTSSSKSPQEEEEEHDLVMKSILSTTTSTSNTKLELSEKLENPLQDTALLDQFLQASLLGQTPTVTPASEENEEDKEQNAVLTSFLQILFANQQAGNAILDAGSSENDGSTSSSQPSPPADPTASLDSLAMFESLLAESMNGNVLDANTSSADQKAAARKRKSTPMKVPKSENGAGYICPMDGCNKVFKEKGSVHRHFVTHIGMRFNCDKCKASYTQKHALMLHQKIHANPDAYQCRGCGTNYTTQNGLRLHRQRNPACMEVSNALEFNTSLNTSISEALSGPLSKNSSPTKQMVSAP” the “soluble on expression in E. coli” value was “not soluble”. For “MVEKELEEKVYKSIIKTIKDTPLEEFYTSGHRTCQGCESALVMRFLAKAAGPRTIVIGATGCMYVANTTYYTTSWIVPWVHTQLGGTGAAALGTAAALRALMRKGKIKQEPINVIAFCGDLGCADMGLSGVSNAMTYDYNLLIILYDNESSANTDIQETSMTPFGAQTSFSRPGKQRRIMKKRWKKSVVPMIIAGHRNVRYAATMTPAYPLDSMNKIRKALTIGGPTFIHSLDPCPKGWDYDPKFSHELGVLAVETGLWPLYEYIDGEIVYNEPTKSIVEGRMKRKPVKEYLEKQGRFSHFTEEDIEYVQRMVDEMYEEWEIPGVMPIKSINAKISDK”, the “soluble on expression in E. coli” value was “not soluble”. In the case of “LPVPAGSRFEARVLGETRAMCCPGCQAVAEAIVAGGLESYYRHRSENAANPEALPKALSEELQLYDRPDVQGGFVRHEGELAETSLMIEGISCAACGWLIEKHLRQLPGVAEARLNLSNHRLHVRWQDSQLPLSQLLGELRQIGYAGHPYQPDRATERLAMENRR”, the “soluble on expression in E. coli” value is reported as “not soluble”. For “GPGSMRRVVITGLGLVSPLAGDVEYSWKRLLEGKSGVRRITEFDVSDLSCQIAARIPVGDGTNGTYNADLHMESKEQRKVDAFIVYAIAAADQALADAEWFPKSDEDQICTGVLIGSGIGGIEGIVEAGYTLRDKGPRRISPFFIPGRLINLASGYVSIKYGLRGPNHSVVTACSTGAHAIGDAARLIALGDADVMLAGGTESPINRISLAGFSACRALSTCRNDDPERASRPYDVDRDGFVMGEGAAIVVLEELEHAKKRGARIYAEIIGYGLSGDAYHITAPSESGEGAQRSMMAALKRAQVNVSELDYINAHGTSTMADVIELAAVERVLGYYAPQVSMSSTKSSIGHLLGAAGAAEAIFCVLAIRDNIAPATLNLENPSIETKIDLVPHKPRERKIDTVLSNSFGFGGTNASLVMRRFSE”, the “soluble on expression in E. coli” value was “soluble”.

From the DeepSol protein solubility set
